Source: the nanobody polyreactivity screen of Harvey et al. (2022)

Assay: yeast display, Sf9 membrane polyspecificity reagent, FACS + sequencing; frameworks hold sequencing errors
Procedure, shortened: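 After 36–48 hours of galactose induction, yeast (Saccharomyces cerevisiae BJ5465) displaying a synthetic nanobody library were stained at 4 °C for 1 hour with 10% biotinylated, detergent-solubilized Sf9 membrane reagent. Streptavidin microbeads enriched the stained cells before FACS sorting into low and high (top ~1%) gates on anti-HA and streptavidin fluorescence. Each clone's polyreactivity label reflects its gate of origin.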

Sequence	polyreactivity (PSR sort gate)
QVQLVESGRGLVQAGGSLRLSCAASGRIFDRNAMGWYRDAPGKERELVAAIDDSVGDTSYADSVKGRFTISRDNAKNTVYLQMNSLKPEDTSVFYCNAGYADFVTYPRYYYWGQGTQVTVSS	low polyreactivity
QVQLVESGRGLVQAGGSLRLSCAASGRIFFRYAMGWYRQAPGKAMELVAALPKSGGSTYADSVKGRFTISRDNAKTTVSLQMNSLKPEDTAVDDCATETTHYRDSGYIVKYRSEYWGQGTQVTVSS	low polyreactivity
QVQLVESGRGLVQAGGSLRLSCAASGRIFKAYAMGWYRQAPGKERELVAAISRSGGRTFYADSVKGRFTISRDNAKNTVYLQMNSLKPEDTAVYYCAVDVSPDSEYYYWGQGTQVTVSS	high polyreactivity
QVQLVESGRGLVQAGGSLRLSCAASGRIFKGYAMGWYRQAPGKERELVAAITTSGGGTYSADSVKGRFTFSRDNAKNTVYLQMNSLKPEDPAVYYCAKTLGSQNYDFDYWGQGTQVTVSS	low polyreactivity
QVQLVESGRGLVQAGGSLRLSCAASGRIFTTDVMGWDRQAPGKERELFAAISARGSTYYADYVKWRFTISRDNAKNTVYLHMNSLKPEDTAVYYFAKKGWSSHERAWYIYDYWGQGTQVTVSS	low polyreactivity
QVQLVESGRGLVQAGGSLRLSCAASGRTFDGYAMGWYRQAPGKERELVAAIDYDGVSTYYADSVKGRFTISRDNAKNTVYLPMHSLKPEDTAVYFCAVDATDDWWLDYWGQGTQVSVSS	low polyreactivity
QVQLVESGRGLVQAGGSLRLSCAASGRTLRIYAMGWYRQAPGKERELVAAITSSGRTNYADSVKGRFTISRDNAKNTVYLQMNSLKPEDTAVYYCAAVTPAVNYFRAASGYYYWGQGTQVTVSS	low polyreactivity
QVQLVESGRGLVQAGGSLRLSCAASGSIFDKYAMGWDRQAPGKEREMVAAISYSGGRTYYADSVKGRFTISRDNAKNTVYLQMNCLNPEDTAVYYCNAVGSVITDFGYWGQGTQVTVSS	low polyreactivity
QVQLVESGRGLVQAGGSLRLSCAASGSIFIANPMGWYRQAPGKQREFVADITLNGGSTYYADSVKGRFTISRDNAKNTVYLEMNRLNPEDTAVYYCAADWVWVAPQYWIVEYDYWGQGTQVTVSS	low polyreactivity
QVQLVESGRGLVQAGGSLRLSCAASGSIFRYNAMGWYRQAPGKERELVAAITRRGTSTYYADSVKGRFTISRDNAKNTVYLQKNSLKPEDTAVYYCAARYLYGVPVGGHGYWGQGTQVSVSS	high polyreactivity
QVQLVESGRGLVQAGGSLRLSCAASGSIFTPNVMGWYIQAPGKERELVAAISQSGGSTFYADSVKGRFTISRDNAKNTVYLQLNSLKPEDTAVYYCATEYDGPVYDLDYDYWGQGTLVTVSS	low polyreactivity
QVQLVESGRGLVQAGGSLRLSCAASGSTFDANAMGWYRQAPGKERELVAAISRSGGNTYYADSVKGRFTISRDNAKNTVYLQMNSLKPEDTAVYYCAADFRNAYYDRLDYWGQGTHVTVSS	low polyreactivity
QVQLVESGRGLVQAGGSLRLSCAASGSTFGGYAMGWYRQAPGKERELVAAISGSGVRTYYADSVKGRFTISRDNAKNTVYLQMNSLKPEDTAVYYCAKRVRYPGDRYYYWGQGTQVTLSS	high polyreactivity
QVQLVESGRGLVQAGGSLRLSCAASGSTFGRYVMGWYRQAPGKERELVAAISKNAGSTYYADSVKGRFTISRDNAKNTVYLQMNSLKPEDTAVYYCNRERRYRNDYWGQGTQVTVSS	high polyreactivity
QVQLVESGRGLVQAGGSLRLSCAASGSTFNRNAMGWYRQAPGKERELVAAITIRGGSTSYADSVKGRFTISRDNAKNTVYLQMNSLKPEDTAVYYCNRQSRNAGGYYWGQGTHVTVSS	low polyreactivity
QVQLVESGRGLVQAGGSLRLSCAASGSTFPPSAMGWYRQAPGKERELVAAIDVSGGTTFYADSVKGRFTISRDNAKNTVYLQMNSLKPEDTAVYYCAIGSVSARFEYWGQGTQVTVSS	low polyreactivity
QVQLVESGRGLVQAGGSLRLSCAASGSTFRGNAMGWYRQAPGKERELVAAISVTGGSTYYADSVKVRFTISRDNAKNTVYLQMNSLKPEDTAVYYCADRVQRGQYSFVRDYYYWGQGTQVTVSS	high polyreactivity
QVQLVESGRGLVQAGGSLRLSCAASGSTFRYYAMGWYRQAPGKERELVAAISYSGGSTYYADSVKGRFTISRDNAKNTVYLQMNSLKPEDTAVYYCASSWYSIGKRYYYWGQGTQVTVSS	high polyreactivity
QVQLVESGRGLVQAGGSLRLSCAASGSTFVRNAMGWYRQAPGKERELDAAITSSGGSTYYADSVKGRFTISRDYAKNTVYVQMNRLKPEDTAVYYCGKRRYYRYDYWGLGTQVTVSS	low polyreactivity
QVQLVESGRGLVQAGGSLRLSCAASGSTISFYAMGWYRQAPGKERELVAAISFRGGRTYYADSVKGRFTISRDNAKNTVYLQMNSLKPEDTAVYYCNAERYYRYWDKQEDYWGQGTHVTVSS	high polyreactivity
QVQLVESGRGLVQAGGSLRLSCAASGTTCLYYTMGWYRQAPGKERELVASISYSGGRTYYADSVKGRFTISRDNAKNTVYLQMNSLKPEDTAVYYCNKKRYYDGYDYWGQGTQVTVSS	high polyreactivity

Sequence	polyreactivity (PSR sort gate)
QVQLVESGRGLVQAGGSLRLSCAASVGTFDKNAMGCYRQAPGNERELVAALTYGGGSTYYADSVKGRFTISRDNAKNTVYLQMNSLKPEDTAVYYCAVAIITYPYATGSSYDYWGQGTQVTVSS	low polyreactivity
QVQLVESGRGLVQAGGSLRLSCAPSGIIFTSYAMGWYRQAPGKESEFVAAITRSGSRTYYADSVKGRFTISRDNAKNTVYLQMNRLKPEDTAVYYCAARTFHDSSDSYAGGYWGQGTQVTVSS	low polyreactivity
QVQLVESGRGLVQAGGSLRLSCAPSGLIFRYYAMGWYRQAPGKEREFVAAISGRGASTYYADSVKGRFTISRDNAKNTVYLQMNSLKPEDTAVYYCATYFPSAVVAFHMDYWGQGTQVTVST	high polyreactivity
QVQLVESGRGLVQAGGSLRLSCASSGSTCVRNVMGWYRQAPGKERELVAAISRRGGGTYYADSVKGRFTISRDNAKNTVYLQMNSLKPEDTAVYYCATGSIAAGHYAYNYWGQGTQVTVSS	high polyreactivity
QVQLVESGRGLVQAGGTLRISFADSGRIFGNYAMGRYRQAPGKERELVAAIPWRGGRTRYADSVKGRFTISRDNAKNTVYLQMNSLKPEDTAVYYCAAPYTSSGPDDYWGQGTQVTVSS	high polyreactivity
QVQLVESGRGLVQAGGTLRLSCAASGSTFGSYAMGWYRQAPGKEREFVATISRSGGRTYYAASVKGRFTISRDNAKNTVYFQMNSLKPEDTAVYYCATDRRYWIGYDYWGPGTQVTVSS	high polyreactivity
QVQLVESGRGLVQAGVSLRLSCAASGPTFRGNVMGRYRKAPGKERELVAAINWTGSSTYYADSVKGGFTISRDNAKNTVYLQMNSLKPEDTAVDYCATRIGPHGGGLPRDYWGQGTQVTVSS	low polyreactivity
QVQLVESGRGLVQTGGSLRLSCAASGLVNAMGWYRQAPWKERELVAAISSGGSTYYADSVKGRFTISRDNAKNTVYLQMNSLKPEDTAVYYCNAVYFRHYGYGYWGQGTQVTVSS	low polyreactivity
QVQLVESGRRLVQAGGSLRLSCAASGRIFGAYARGWSRQAPGKEREMVAAITSRGGNTYYADSVKGRFTISRDNAKNTVYLQMNSLKPEDTAVYYCRYDIWVWWSGAYDYWGQGTQVTVSS	low polyreactivity
QVQLVESGTGLVQAGGSLRLSCAASGSIFAYYAMGWYRHAPGKERELVAAISSRGGNTYYADSVKGRFTISRDNAKNNVYLQMNSLKPEDTAVYYCAADYQYSYGEYDYWGHGTQVTVSS	high polyreactivity
QVQLVESGVCLVQAGGSLRLSCAASGIIISTYAMGWYRQAPGKERELVAAITWGGTRTNYADSVKGRFTISRDNAKNTVYLQMKSLKPEDTAVYYCAASYVRDSYTHGSWGQGTQVTVSS	low polyreactivity
QVQLVESGVGIVQAGGSLRLICAASGSTFTIYAMGWYRQAPGKERELVAAITWNGGSTYYADSVKGRFTISRDNAKKTVYLQMNSLKPEDTAVYYCAAKFRYQYVRVAREYYYWGQGTQVTVSS	high polyreactivity
QVQLVESGVGIVQAGGSLRLSCAASGRIFFTYAMVWYRQAPGKERELVASITGSGGSTYYADSVKGRFTISRDNAKNTVYLQMNSLKPEDTAVYYCAAALFRRQLYRKFYYWGQGTQVSVSS	low polyreactivity
QVQLVESGVGIVQAGGSLRLSCAASGRIISGYAMGWYRHAPGKERELVATISSGGGTNYADSVKGRFTISRDNAKNTVYLQMNSLKPEDTAVYYCNKAWGYWSIRGVTHRYGYWGQGTQVTVSS	high polyreactivity
QVQLVESGVGLVKAGGSLRLSCAASGSTFRGYAMGWYRQAPGKERELVAAITYISDTTNYADSVKGRFTISRDNAKNTVYLQMNSLKPDDTAVYYCNAYYDGVWRYTSQETGDHWGQGTQVTVSS	low polyreactivity
QVQLVESGVGLVKAGGSLRLTCAASGSIFDNYPMGWYIQAPGKERELVAAISGRGGSTYYADSVKGRFTISRDNAKNSVYLQMNSLKPEVTAVYYCNALVHQTYYDYEYWGQGTQVTVSS	high polyreactivity
QVQLVESGVGLVQAGGILRLSCAASGFIFCQYSMGWYRQAPWKERELVAAISSVGTTNYADSVKGSFTISRDNAKNTVYLQMNSLKPEDTAVYYCNADSLVEYWDYDYWGQGTQVTVSS	low polyreactivity
QVQLVESGVGLVQAGGSHRFICAASGIIFYSYAMGWYRQAPGKEREFVAAITNSDGSTYYADTVKRRFTISRDNAKNTVYLQMNSLKPVDTAVYMYYWGQGTQVTVSS	low polyreactivity
QVQLVESGVGLVQAGGSLLLSCAASGRTFSYNPMGSYRQAPGKERELVALISSGGSTNYADSVKGRFTISRDNAKNTVYLQMNSLKPEDTALYYCNAGSYVWEEDYWGQGTQVTVSS	high polyreactivity
QVQLVESGVGLVQAGGSLPLSCAASGRTFRYYTMGSYRQAPGKERELVAAITQSGDSTYYADSVKGRFTISRDNAKNTFYLQMNSLKPEDTAVYYCNKAWRRRGLYDYWGQGTQVTVSS	high polyreactivity
